Results published in paper doi:10.1101/2025.11.18.689095 (bioRxiv, 2025).
Where no end group is shown, it is not given here.

B1: human Tom70 (residues 108–608) (domain or fragment)
chain: MNSLDRAQAAKNKGNKYFKAGKYEQAIQCYTEAISLCPTEKNVDLSTFYQNRAAAFEQLQKWKEVAQDCTKAVELNPKYVKALFRRAKAHEKLDNKKECLEDVTAVCILEGFQNQQSMLLADKVLKLLGKEKAKEKYKNREPLMPSPQFIKSYFSSFTDDIISQPMLKGEKSDEDKDKEGEALEVKENSGYLKAKQYMEEENYDKIISECSKEIDAEGKYMAEALLLRATFYLLIGNANAAKPDLDKVISLKEANVKLRANALIKRGSMYMQQQQPLLSTQDFNMAADIDPQNADVYHHRGQLKILLDQVEEAVADFDECIRLRPESALAQAQKCFALYRQAYTGNNSSQIQAAMKGFEEVIKKFPRCAEGYALYAQALTDQQQFGKADEMYDKCIDLEPDNATTYVHKGLLQLQWKQDLDRGLELISKAIEIDNKCDFAYETMGTIEVQRGNMEKAIDMFNKAINLAKSEMEMAHLYSLCDAAHAQTEVAKKYGLKPPTL
notes: human Tom70 (translocase of outer mitochondria membrane 70), residues 108-608; N-terminal Avi tag, His6 tag, (GGS)5 linker and TEV site removed by TEV protease; also called hTom70; free Tom70; source: E. coli BL21 (DE3), purified (Ni-NTA, TEV cleavage, second Ni column, SEC); not shown: Avi, N-terminal, cleaved; His6, N-terminal, cleaved
B2: ^19F-labeled Tom70 (5-fluoro-tryptophan, residues 108–608) (domain or fragment)
chain: B1 chain
modifications: 5-fluoro-tryptophan at W169 and W523
notes: human Tom70, residues 108-608; also called ^19F Tom70; 5F-Trp Tom70; source: E. coli BL21(DE3) in M9 media supplemented with 5-fluoro-tryptophan, purified as unlabeled Tom70; not shown: Avi, N-terminal, cleaved; His6, N-terminal, cleaved
B3: Hsp90_(EEVD) peptide (peptide)
peptide: YDTSRMEEVD-OH
notes: tyrosine added to aid with quantification; C-terminal residues 724-732 of human Hsp90α; 10 residues: an added N-terminal Tyr and nine Hsp90 residues; source: synthetic peptide (LifeTein)

Columns and labels:
Conditions in all cases: both partners purified
[1] = target: T1, biotinylated human Hsp90α (residues 1–732), tags not cleaved (human, UniProt P07900 1-732, biotin (enzymatic protein biotinylation kit)); assay: BLI + ITC; kon estimated indirectly as koff from BLI (immobilised biotinylated Hsp90) divided by KD from ITC (untagged Hsp90)
T1 construct: human Hsp90α, residues 1-732; N-terminal Avi tag, His6 tag, (GGS)5 linker and TEV site remain on the chain; held on streptavidin probes; also called biotinylated Hsp90; surface-immobilized Hsp90; source: E. coli BL21 Star (DE3) pLysS, purified (Ni-INDIGO, HiPrep Q; no TEV cleavage), enzymatically biotinylated; not shown: Avi, N-terminal, kept; His6, N-terminal, kept

[2] = target: T2, human Hsp90α (residues 1–732), full-length (human, UniProt P07900 1-732); assay: ITC; Tom70 (400 μM), Tom70:Orf9b_(Helix) complex (400 μM), Tom70:Orf9b complex (500 μM) or truncation mutant complexes titrated into Hsp90 (20 μM); 20°C; 20 mM sodium phosphate pH 8, 150 mM NaCl, 2 mM TCEP, 10% glycerol; 1:1 binding model
T2 construct: human Hsp90α, residues 1-732; also called full-length Hsp90; heat shock protein 90; source: E. coli BL21 Star (DE3) pLysS, purified (Ni-INDIGO, TEV cleavage, second Ni-INDIGO, HiPrep Q); not shown: Avi, N-terminal, cleaved; His6, N-terminal, cleaved

[3] = target: T2, human Hsp90α (residues 1–732), …; assay: NMR titration
[4] = target: B1; assay: ITC; Hsp90_(EEVD) (400–500 μM) titrated into Tom70 or its complexes (30 μM) in the cell; 20°C; 20 mM sodium phosphate pH 8, 150 mM NaCl, 2 mM TCEP, 10% glycerol; 1:1 binding model

Work on B1 yielded a kon [1] of 500000 M⁻¹ s⁻¹ and a Kd [2] of 3000 nM.

B2: binds [3].

With B3 the “fold lower affinity than full-length Hsp90 for free Tom70” value [4] was 4 fold.
